Reference: patent US7488588 (LICENTIA, dated 2009)

B1: human persephin (PSPN) (ligand, UniProt O60542 61-156, looked up)
chain: ALSGPCQLWSLTLSVAELGLGYASEEKVIFRYCAGSCPRGARTQHGLALARLQGQGRAHGGPCCRPTRYTDVAFLDDRHRWQRLPQLSAAACGCGG
notes: Cross-linking gels show monomer (approx. 14-16 kDa) and dimer (32 kDa) bands; also called unlabeled PSPN
B2: human GFRα4, GPI-anchored isoform a (GFRα4a) (receptor)
chain: VGGNRCVDAAEACTADARCQRLRSEYVAQCLGRAAQGGCPRARCRRALRRFFARGPPALTHALLFCPCAGPACAERRRQTFVPSCAFSGPGPAPPSCLEPLNFCERSRVCRPRLLAFQVSCTPAPSAPDGCLLDQGARCLRAYAGLVGTAVTPNYVDNVSARVAPWCDCGASGNRREDCEAFRGLFTRNRCLDGAIQAFASGWPPVLLDQLNPQGDPEHSLLQVSSTG
modifications: GPI anchor (released by PI-PLC)
notes: Expressed from full-length GFRA4a cDNA (pCR3.1) in mouse Neuro-2a cells (endogenous Ret), in CHO cells (no Ret) or microinjected into mouse SCG neurons; also called hGFRα4; GFRA4a

How the values were obtained:
[1] = target: B2; assay: displacement of 0.9 nM [125I]PSPN by unlabeled PSPN from GFRA4a-transfected Neuro-2a cells (endogenous Ret), 4 hrs on ice
Experimental: (§1) J. Milbrandt and E. M. Johnson, Jr.). […] was calculated using Cheng-Prusoff equation (McGonigle, et al., 1994).

[2] = target: T1, rat GDNF (glial cell line-derived neurotrophic factor) (rat, UniProt Q07731 78-211); assay: displacement of 0.9 nM [125I]PSPN from GFRA4a-transfected Neuro-2a cells
T1 sequence (looked up): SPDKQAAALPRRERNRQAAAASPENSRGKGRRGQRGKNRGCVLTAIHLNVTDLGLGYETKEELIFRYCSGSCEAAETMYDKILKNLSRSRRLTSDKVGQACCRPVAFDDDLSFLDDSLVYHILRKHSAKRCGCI
Experimental: as §1

human neurturin (NRTN) = target: T2, human neurturin (NRTN) (human, UniProt Q99748 96-197); assay: as above
T2 sequence (looked up): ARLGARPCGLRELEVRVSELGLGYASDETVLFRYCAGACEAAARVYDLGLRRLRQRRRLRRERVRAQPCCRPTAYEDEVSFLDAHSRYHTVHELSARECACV
Experimental: as §1

human persephin (PSPN) = target: B1; assay: displacement of [125I]PSPN from GFRA4a-transfected Neuro-2a cells; KD calculated using Cheng-Prusoff equation
Experimental: as §1

Binder | IC50 [1] [nM] | binding result [2] | binding result (human neurturin (NRTN)) | Kd (human persephin (PSPN)) [nM]
B1 | 1 |  |  | 
B2 |  | no binding (tested: up to 300 nM) | no binding (tested: up to 200 nM) | ~0.1
